Results reported in patent publication US20170356903, “OLIGONUCLEOTIDE PROBES AND USES THEREOF” (Caris Science, Inc., published 2017).

Target: Argonaute-2 (hAgo2) (Homo sapiens, UniProt Q9UKV8 Q9UKV8:1-859)
Experiment: EMSA; DNA cariMir co-migrates with Ago2-miR complex
Conditions: tags: expressed in sf9 insect cells, endogenous insect miRs co-purify; label: fluorescein
Procedure: Recombinant hAgo2 (Creative Biomart) was preloaded with synthetic miR guide in cleavage buffer (150 mM NaCl, 5 mM MgCl₂, 2.5% glycerol, 0.05% Tween-20, 10 mM Tris-HCl, pH 7.4) for 10-20 min at room temperature, followed by addition of target cariMir. Reactions were stopped by addition of gel loading buffer and immediately resolved by non-denaturing PAGE using 10% TBE gels (Life Technologies). Gels were stained with SYBR Green I and imaged with a PXi gel imager (Syngene). Gel densitometric analysis was performed using Image J and data were plotted in Prism 6 (GraphPad).
When cariMirs were mixed with recombinant Ago2 pre-loaded with synthetic miRs, cariMirs were cleaved producing the expected 5′ and 3′ cleavage products (see FIG. 14B), consistent with miR-guided Ago2 endonucleolytic action subsequent to specific hybridization of cariMir and miR within Ago2. […] Various components of the method are shown in the lanes of the gel as indicated above the gel. In the rightmost lane on the gel image (labeled “miR+Ago2+cariMir”), all components are added to allow potential Ago-mediated cleavage of the cariMir to occur (see FIG. 14A). The amounts of the various components in the reaction mixture are indicated to the left of the gel. […]

Chain of Argonaute-2 (hAgo2) (Q9UKV8 whole entry, one chain of several): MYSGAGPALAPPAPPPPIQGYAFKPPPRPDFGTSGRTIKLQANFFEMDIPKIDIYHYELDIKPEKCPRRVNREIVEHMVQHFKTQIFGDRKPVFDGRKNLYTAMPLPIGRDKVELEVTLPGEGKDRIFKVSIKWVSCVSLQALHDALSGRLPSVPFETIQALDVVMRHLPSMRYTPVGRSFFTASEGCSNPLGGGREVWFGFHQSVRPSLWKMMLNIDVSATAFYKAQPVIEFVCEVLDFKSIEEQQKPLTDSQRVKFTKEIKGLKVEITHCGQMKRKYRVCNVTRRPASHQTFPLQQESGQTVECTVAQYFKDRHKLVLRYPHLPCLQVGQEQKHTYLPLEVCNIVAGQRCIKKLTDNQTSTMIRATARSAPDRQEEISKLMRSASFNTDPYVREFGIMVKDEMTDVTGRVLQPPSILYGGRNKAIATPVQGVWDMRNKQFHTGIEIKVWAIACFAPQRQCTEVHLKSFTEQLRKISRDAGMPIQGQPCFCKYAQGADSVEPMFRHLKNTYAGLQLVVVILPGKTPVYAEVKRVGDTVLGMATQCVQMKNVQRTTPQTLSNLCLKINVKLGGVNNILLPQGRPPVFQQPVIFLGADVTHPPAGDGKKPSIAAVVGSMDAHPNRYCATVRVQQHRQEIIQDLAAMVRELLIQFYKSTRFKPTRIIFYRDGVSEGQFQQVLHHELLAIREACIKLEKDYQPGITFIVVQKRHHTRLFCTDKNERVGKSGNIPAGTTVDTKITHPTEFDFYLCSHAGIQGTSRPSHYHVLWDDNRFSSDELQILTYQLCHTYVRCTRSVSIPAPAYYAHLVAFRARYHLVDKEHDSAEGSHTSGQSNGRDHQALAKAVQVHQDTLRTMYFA

B1: miR guide ; cariMir target (ssRNA ; ssDNA)
RNA: UAGAGGUACGUGCUGAGGCUU
DNA: CTAGCATGACTGCAGTACGTCACTGCAGGCCTCAGCACGTACCTCTATAACCGCCCTGTCTCTTATACACATCTGACGCTGCCGACGA
modifications: 5'-phosphate, internal fluorescein-dT
  binding result: binds
